Test results as given in paper PMC7605860.

B1: corin: N567Q (protein)
parent chain: MKQSPALAPEERCRRAGSPKPVLRADDNNMGNGCSQKLATANLLRFLLLVLIPCICALVLLLVILLSYVGTLQKVYFKSNGSEPLVTDGEIQGSDVILTNTIYNQSTVVSTAHPDQHVPAWTTDASLPGDQSHRNTSACMNITHSQCQMLPYHATLTPLLSVVRNMEMEKFLKFFTYLHRLSCYQHIMLFGCTLAFPECIIDGDDSHGLLPCRSFCEAAKEGCESVLGMVNYSWPDFLRCSQFRNQTESSNVSRICFSPQQENGKQLLCGRGENFLCASGICIPGKLQCNGYNDCDDWSDEAHCNCSENLFHCHTGKCLNYSLVCDGYDDCGDLSDEQNCDCNPTTEHRCGDGRCIAMEWVCDGDHDCVDKSDEVNCSCHSQGLVECRNGQCIPSTFQCDGDEDCKDGSDEENCSVIQTSCQEGDQRCLYNPCLDSCGGSSLCDPNNSLNNCSQCEPITLELCMNLPYNSTSYPNYFGHRTQKEASISWESSLFPALVQTNCYKYLMFFSCTILVPKCDVNTGEHIPPCRALCEHSKERCESVLGIVGLQWPEDTDCSQFPEENSDNQTCLMPDEYVEECSPSHFKCRSGQCVLASRRCDGQADCDDDSDEENCGCKERDLWECPSNKQCLKHTVICDGFPDCPDYMDEKNCSFCQDDELECANHACVSRDLWCDGEADCSDSSDEWDCVTLSINVNSSSFLMVHRAATEHHVCADGWQEILSQLACKQMGLGEPSVTKLIQEQEKEPRWLTLHSNWESLNGTTLHELLVNGQSCESRSKISLLCTKQDCGRRPAARMNKRILGGRTSRPGRWPWQCSLQSEPSGHICGCVLIAKKWVLTVAHCFEGRENAAVWKVVLGINNLDHPSVFMQTRFVKTIILHPRYSRAVVDYDISIVELSEDISETGYVRPVCLPNPEQWLEPDTYCYITGWGHMGNKMPFKLQEGEVRIISLEHCQSYFDMKTITTRMICAGYESGTVDSCMGDSGGPLVCEKPGGRWTLFGLTSWGSVCFSKVLGPGVYSNVSYFVEWIKRQIYIQTFLLN
B2: corin: N1022Q (protein)
parent chain: MKQSPALAPEERCRRAGSPKPVLRADDNNMGNGCSQKLATANLLRFLLLVLIPCICALVLLLVILLSYVGTLQKVYFKSNGSEPLVTDGEIQGSDVILTNTIYNQSTVVSTAHPDQHVPAWTTDASLPGDQSHRNTSACMNITHSQCQMLPYHATLTPLLSVVRNMEMEKFLKFFTYLHRLSCYQHIMLFGCTLAFPECIIDGDDSHGLLPCRSFCEAAKEGCESVLGMVNYSWPDFLRCSQFRNQTESSNVSRICFSPQQENGKQLLCGRGENFLCASGICIPGKLQCNGYNDCDDWSDEAHCNCSENLFHCHTGKCLNYSLVCDGYDDCGDLSDEQNCDCNPTTEHRCGDGRCIAMEWVCDGDHDCVDKSDEVNCSCHSQGLVECRNGQCIPSTFQCDGDEDCKDGSDEENCSVIQTSCQEGDQRCLYNPCLDSCGGSSLCDPNNSLNNCSQCEPITLELCMNLPYNSTSYPNYFGHRTQKEASISWESSLFPALVQTNCYKYLMFFSCTILVPKCDVNTGEHIPPCRALCEHSKERCESVLGIVGLQWPEDTDCSQFPEENSDNQTCLMPDEYVEECSPSHFKCRSGQCVLASRRCDGQADCDDDSDEENCGCKERDLWECPSNKQCLKHTVICDGFPDCPDYMDEKNCSFCQDDELECANHACVSRDLWCDGEADCSDSSDEWDCVTLSINVNSSSFLMVHRAATEHHVCADGWQEILSQLACKQMGLGEPSVTKLIQEQEKEPRWLTLHSNWESLNGTTLHELLVNGQSCESRSKISLLCTKQDCGRRPAARMNKRILGGRTSRPGRWPWQCSLQSEPSGHICGCVLIAKKWVLTVAHCFEGRENAAVWKVVLGINNLDHPSVFMQTRFVKTIILHPRYSRAVVDYDISIVELSEDISETGYVRPVCLPNPEQWLEPDTYCYITGWGHMGNKMPFKLQEGEVRIISLEHCQSYFDMKTITTRMICAGYESGTVDSCMGDSGGPLVCEKPGGRWTLFGLTSWGSVCFSKVLGPGVYSNVSYFVEWIKRQIYIQTFLLN
B3: corin: N697Q (protein)
parent chain: MKQSPALAPEERCRRAGSPKPVLRADDNNMGNGCSQKLATANLLRFLLLVLIPCICALVLLLVILLSYVGTLQKVYFKSNGSEPLVTDGEIQGSDVILTNTIYNQSTVVSTAHPDQHVPAWTTDASLPGDQSHRNTSACMNITHSQCQMLPYHATLTPLLSVVRNMEMEKFLKFFTYLHRLSCYQHIMLFGCTLAFPECIIDGDDSHGLLPCRSFCEAAKEGCESVLGMVNYSWPDFLRCSQFRNQTESSNVSRICFSPQQENGKQLLCGRGENFLCASGICIPGKLQCNGYNDCDDWSDEAHCNCSENLFHCHTGKCLNYSLVCDGYDDCGDLSDEQNCDCNPTTEHRCGDGRCIAMEWVCDGDHDCVDKSDEVNCSCHSQGLVECRNGQCIPSTFQCDGDEDCKDGSDEENCSVIQTSCQEGDQRCLYNPCLDSCGGSSLCDPNNSLNNCSQCEPITLELCMNLPYNSTSYPNYFGHRTQKEASISWESSLFPALVQTNCYKYLMFFSCTILVPKCDVNTGEHIPPCRALCEHSKERCESVLGIVGLQWPEDTDCSQFPEENSDNQTCLMPDEYVEECSPSHFKCRSGQCVLASRRCDGQADCDDDSDEENCGCKERDLWECPSNKQCLKHTVICDGFPDCPDYMDEKNCSFCQDDELECANHACVSRDLWCDGEADCSDSSDEWDCVTLSINVNSSSFLMVHRAATEHHVCADGWQEILSQLACKQMGLGEPSVTKLIQEQEKEPRWLTLHSNWESLNGTTLHELLVNGQSCESRSKISLLCTKQDCGRRPAARMNKRILGGRTSRPGRWPWQCSLQSEPSGHICGCVLIAKKWVLTVAHCFEGRENAAVWKVVLGINNLDHPSVFMQTRFVKTIILHPRYSRAVVDYDISIVELSEDISETGYVRPVCLPNPEQWLEPDTYCYITGWGHMGNKMPFKLQEGEVRIISLEHCQSYFDMKTITTRMICAGYESGTVDSCMGDSGGPLVCEKPGGRWTLFGLTSWGSVCFSKVLGPGVYSNVSYFVEWIKRQIYIQTFLLN
B4: corin: N651Q (protein)
parent chain: MKQSPALAPEERCRRAGSPKPVLRADDNNMGNGCSQKLATANLLRFLLLVLIPCICALVLLLVILLSYVGTLQKVYFKSNGSEPLVTDGEIQGSDVILTNTIYNQSTVVSTAHPDQHVPAWTTDASLPGDQSHRNTSACMNITHSQCQMLPYHATLTPLLSVVRNMEMEKFLKFFTYLHRLSCYQHIMLFGCTLAFPECIIDGDDSHGLLPCRSFCEAAKEGCESVLGMVNYSWPDFLRCSQFRNQTESSNVSRICFSPQQENGKQLLCGRGENFLCASGICIPGKLQCNGYNDCDDWSDEAHCNCSENLFHCHTGKCLNYSLVCDGYDDCGDLSDEQNCDCNPTTEHRCGDGRCIAMEWVCDGDHDCVDKSDEVNCSCHSQGLVECRNGQCIPSTFQCDGDEDCKDGSDEENCSVIQTSCQEGDQRCLYNPCLDSCGGSSLCDPNNSLNNCSQCEPITLELCMNLPYNSTSYPNYFGHRTQKEASISWESSLFPALVQTNCYKYLMFFSCTILVPKCDVNTGEHIPPCRALCEHSKERCESVLGIVGLQWPEDTDCSQFPEENSDNQTCLMPDEYVEECSPSHFKCRSGQCVLASRRCDGQADCDDDSDEENCGCKERDLWECPSNKQCLKHTVICDGFPDCPDYMDEKNCSFCQDDELECANHACVSRDLWCDGEADCSDSSDEWDCVTLSINVNSSSFLMVHRAATEHHVCADGWQEILSQLACKQMGLGEPSVTKLIQEQEKEPRWLTLHSNWESLNGTTLHELLVNGQSCESRSKISLLCTKQDCGRRPAARMNKRILGGRTSRPGRWPWQCSLQSEPSGHICGCVLIAKKWVLTVAHCFEGRENAAVWKVVLGINNLDHPSVFMQTRFVKTIILHPRYSRAVVDYDISIVELSEDISETGYVRPVCLPNPEQWLEPDTYCYITGWGHMGNKMPFKLQEGEVRIISLEHCQSYFDMKTITTRMICAGYESGTVDSCMGDSGGPLVCEKPGGRWTLFGLTSWGSVCFSKVLGPGVYSNVSYFVEWIKRQIYIQTFLLN
B5: corin: N761Q (protein)
parent chain: MKQSPALAPEERCRRAGSPKPVLRADDNNMGNGCSQKLATANLLRFLLLVLIPCICALVLLLVILLSYVGTLQKVYFKSNGSEPLVTDGEIQGSDVILTNTIYNQSTVVSTAHPDQHVPAWTTDASLPGDQSHRNTSACMNITHSQCQMLPYHATLTPLLSVVRNMEMEKFLKFFTYLHRLSCYQHIMLFGCTLAFPECIIDGDDSHGLLPCRSFCEAAKEGCESVLGMVNYSWPDFLRCSQFRNQTESSNVSRICFSPQQENGKQLLCGRGENFLCASGICIPGKLQCNGYNDCDDWSDEAHCNCSENLFHCHTGKCLNYSLVCDGYDDCGDLSDEQNCDCNPTTEHRCGDGRCIAMEWVCDGDHDCVDKSDEVNCSCHSQGLVECRNGQCIPSTFQCDGDEDCKDGSDEENCSVIQTSCQEGDQRCLYNPCLDSCGGSSLCDPNNSLNNCSQCEPITLELCMNLPYNSTSYPNYFGHRTQKEASISWESSLFPALVQTNCYKYLMFFSCTILVPKCDVNTGEHIPPCRALCEHSKERCESVLGIVGLQWPEDTDCSQFPEENSDNQTCLMPDEYVEECSPSHFKCRSGQCVLASRRCDGQADCDDDSDEENCGCKERDLWECPSNKQCLKHTVICDGFPDCPDYMDEKNCSFCQDDELECANHACVSRDLWCDGEADCSDSSDEWDCVTLSINVNSSSFLMVHRAATEHHVCADGWQEILSQLACKQMGLGEPSVTKLIQEQEKEPRWLTLHSNWESLNGTTLHELLVNGQSCESRSKISLLCTKQDCGRRPAARMNKRILGGRTSRPGRWPWQCSLQSEPSGHICGCVLIAKKWVLTVAHCFEGRENAAVWKVVLGINNLDHPSVFMQTRFVKTIILHPRYSRAVVDYDISIVELSEDISETGYVRPVCLPNPEQWLEPDTYCYITGWGHMGNKMPFKLQEGEVRIISLEHCQSYFDMKTITTRMICAGYESGTVDSCMGDSGGPLVCEKPGGRWTLFGLTSWGSVCFSKVLGPGVYSNVSYFVEWIKRQIYIQTFLLN

Assay: immunostaining, confocal microscopy, FBL/FTotal ratio in polarized MDCK cells
Conditions: glycan lost; control: corin WT

localisation_or_trafficking, no change:
B1
B2
B3
B4
B5
